Results on six molecules are retold here after US20250304651A1 (ACADEMISCH ZIEKENHUIS LEIDEN H O D N LEIDS UNIVERSITAIR …, published 2025).

Test [1] concerns the target HLA-A*02:01 (recombinant heavy chain with human β2-microglobulin, monomer) (human). Kind of test: monomer refolding.
The target in test [2] is T1, ΔNPM1 (mutant NPM1; dNPM1) peptide on HLA-A*03:01 (human).
T1 peptide: AVEEVSLRK
The test can be described thus: cytokine release.

Test [3] concerns the target T2, ΔNPM1 (mutant NPM1; dNPM1) peptide on HLA-A*11:01 (human).
T2 peptide: AVEEVSLRK
The test can be described thus: multimer staining.

The target in test [4] is T3, HLA-A*03:01 (monomer for refolding) (human).
T3 construct: Monomer production is described in detail only for HLA-A*02:01
Kind of test: monomer refolding.

Test [5] concerns the target T4, HLA-A*11:01 (monomer for refolding) (human).
T4 construct: Monomer production is described in detail only for HLA-A*02:01
Kind of test: monomer refolding.

The target in test [6] is T2, ΔNPM1 (mutant NPM1; dNPM1) peptide on …. The test can be described thus: cytokine release.
In test [7] the target is T1, ΔNPM1 (mutant NPM1; dNPM1) peptide on …. Kind of test: multimer staining.
In test [8] the target is T5, ΔNPM1 (mutant NPM1; dNPM1) peptide on HLA-A*03:01 (human).
T5 peptide: CLAVEEVSLRK
Kind of test: multimer staining.

Test [9] addresses T6, HLA-A*01:01 (monomer for refolding) (human).
T6 construct: Monomer production is described in detail only for HLA-A*02:01
The test can be described thus: monomer folding for tetramer production.

On to CLAVEEVSL (Synthetic peptide) [ΔNPM1 peptide CLAVEEVSL], for which the binding result in test [1] is recorded as “binds”.

B1: dNPM1-A*11:01 TCR (clone 6F11) (TCR, V domains shown)
Valpha: AQSVTQLDSQVPVFEEAPVELRCNYSSSVSVYLFWYVQYPNQGLQLLLKYLSGSTLVKGINGFEAEFNKSQTSFHLRKPSVHISDTAEYFCAVSPAGNQFYFGTGTSLTVIP
Vbeta: GAGVSQSPRYKVTKRGQDVALRCDPISGHVSLYWYRQALGQGPEFLTYFNYEAQQDKSGLPNDRFSAERPEGSISTLTIQRTEQRDSAMYRCASSLGSNQPQHFGDGTRLSIL
With B1, the binding result in test [2] is listed as “no recognition”; in test [3], “recognises”.
CLAVEEVSLRK (Synthetic peptide) [ΔNPM1 peptide CLAVEEVSLRK]: the binding result in test [4] and in test [5] was “binds” each time.

B2: dNPM1-A*03:01 TCR (clone 31.3.F1) (TCR, V domains shown)
Valpha: QKEVEQNSGPLSVPEGAIASLNCTYSDRGSQSFFWYRQYSGKSPELIMSIYSNGDKEDGRFTAQLNKASQYVSLLIRDSQPSDSATYLCALSGGGQNFVFGPGTRLSVLP
Vbeta: EAGVTQFPSHSVIEKGQTVTLRCDPISGHDNLYWYRRVMGKEIKFLLHFVKESKQDESGMPNNRFLAERTGGTYSTLKVQPAELEDSGVYFCASSQGSGFRHFGDGTRLSIL
Take B2: the figures for the binding result in [6], in test [7] and in test [8] were “no recognition”, “recognises” and “no recognition”, respectively.

B3: ΔNPM1 peptide AVEEVSLRK (peptide)
peptide: AVEEVSLRK
notes: Eluted natural ligand in the ligandome work
Take B3: the binding result in test [4], in test [5] and in [9] was “binds” each time.

B4: dNPM1-A*11:01 TCR (clone 26.2.D6) (TCR, V domains shown)
Valpha: GEDVEQSLFLSVREGDSSVINCTYTDSSSTYLYWYKQEPGAGLQLLTYIFSNMDMKQDQRLTVLLNKKDKHLSLRIADTQTGDSAIYFCAESKGQNFVFGPGTRLSVLP
Vbeta: DGGITQSPKYLFRKEGQNVTLSCEQNLNHDAMYWYRQDPGQGLRLIYYSHIVNDFQKGDIAEGYSVSREKKESFPLTVTSAQKNPTAFYLCASTTWGTGGHEQYFGPGTRLTVT
As for B4, the binding result in [2] is “no recognition”; in [3] it was “recognises”.
